Experimental data reported in PMC3333885 (Nucleic Acids Research, 2011).
Where a chain is given by its changes, count along the chain named.

Key:
[1] = biological target: the molecule itself; assay: AUC
[2] = biological target: T1, EcoP15I Res subunit, C-terminally His6-tagged (from pQEP15) (UniProt Q5ZND2 1-970); assay: second-derivative UV absorption spectroscopy
T1 sequence (looked up): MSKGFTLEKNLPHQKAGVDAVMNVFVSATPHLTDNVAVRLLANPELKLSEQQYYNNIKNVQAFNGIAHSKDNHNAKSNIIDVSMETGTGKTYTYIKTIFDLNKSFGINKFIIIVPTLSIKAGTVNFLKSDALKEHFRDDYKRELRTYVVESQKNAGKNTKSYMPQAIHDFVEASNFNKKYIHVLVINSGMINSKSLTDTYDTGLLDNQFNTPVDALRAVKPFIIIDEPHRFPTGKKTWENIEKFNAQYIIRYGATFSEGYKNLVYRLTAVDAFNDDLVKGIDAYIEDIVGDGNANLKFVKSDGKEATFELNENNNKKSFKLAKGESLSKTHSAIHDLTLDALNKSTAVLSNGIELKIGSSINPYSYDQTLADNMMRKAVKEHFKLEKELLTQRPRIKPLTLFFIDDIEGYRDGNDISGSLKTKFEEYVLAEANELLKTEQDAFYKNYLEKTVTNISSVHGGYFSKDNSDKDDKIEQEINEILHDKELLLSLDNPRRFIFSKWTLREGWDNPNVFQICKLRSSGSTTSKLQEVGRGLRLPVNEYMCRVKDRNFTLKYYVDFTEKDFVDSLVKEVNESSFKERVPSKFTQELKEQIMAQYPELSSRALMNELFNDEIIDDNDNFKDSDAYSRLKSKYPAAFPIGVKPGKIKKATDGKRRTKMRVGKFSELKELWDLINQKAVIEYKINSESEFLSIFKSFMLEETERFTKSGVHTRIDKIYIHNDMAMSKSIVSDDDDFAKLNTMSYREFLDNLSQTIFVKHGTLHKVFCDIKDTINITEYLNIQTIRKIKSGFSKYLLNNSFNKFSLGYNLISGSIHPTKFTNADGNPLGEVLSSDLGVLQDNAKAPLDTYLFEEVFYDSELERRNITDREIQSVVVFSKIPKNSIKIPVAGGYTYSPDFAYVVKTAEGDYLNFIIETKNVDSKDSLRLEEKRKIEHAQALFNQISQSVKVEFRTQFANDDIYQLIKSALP

[3] = biological target: T1, EcoP15I Res subunit, C-terminally …; assay: SEC
[4] = biological target: T2, EcoP15I Res subunit (earlier preparations from pACYC177, no affinity tag) (UniProt Q5ZND2 1-970); assay: densitometry of SDS-PAGE of the purified enzyme
T2 sequence (looked up): T1 sequence (looked up)

[5] = biological target: T3, EcoP15I Res translocase (Tr) domain (UniProt Q5ZND2 1-705); assay: EMSA
T3 sequence: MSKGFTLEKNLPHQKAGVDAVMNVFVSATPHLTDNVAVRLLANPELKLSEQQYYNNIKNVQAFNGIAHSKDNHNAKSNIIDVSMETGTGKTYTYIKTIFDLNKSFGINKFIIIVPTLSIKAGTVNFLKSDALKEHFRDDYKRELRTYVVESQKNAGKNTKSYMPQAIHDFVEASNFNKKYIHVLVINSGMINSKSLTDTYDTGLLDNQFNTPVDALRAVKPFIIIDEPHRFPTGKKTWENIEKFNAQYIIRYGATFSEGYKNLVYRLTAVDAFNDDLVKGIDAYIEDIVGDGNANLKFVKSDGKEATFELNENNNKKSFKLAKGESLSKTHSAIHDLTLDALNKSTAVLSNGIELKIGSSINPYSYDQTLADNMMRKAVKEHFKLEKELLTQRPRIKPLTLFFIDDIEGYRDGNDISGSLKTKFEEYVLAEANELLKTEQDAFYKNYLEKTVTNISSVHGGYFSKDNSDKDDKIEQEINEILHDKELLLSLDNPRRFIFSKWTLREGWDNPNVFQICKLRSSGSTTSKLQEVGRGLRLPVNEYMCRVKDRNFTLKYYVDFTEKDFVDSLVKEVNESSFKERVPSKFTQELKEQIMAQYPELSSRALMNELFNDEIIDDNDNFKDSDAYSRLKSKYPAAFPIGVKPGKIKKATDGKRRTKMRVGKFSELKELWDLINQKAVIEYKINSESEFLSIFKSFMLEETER

[6] = biological target: EcoP15I Mod subunit;EcoP15I Res subunit (Escherichia coli?;Escherichia coli?, UniProt P12364;Q5ZND2 1-644;1-970, |); assay: EMSA
[7] = biological target: T4, EcoP15I Mod subunit;EcoP15I Res translocase (Tr) domain (Escherichia coli?;Escherichia coli?, UniProt P12364;Q5ZND2 1-644;1-705, |); assay: EMSA
T4 sequence 1: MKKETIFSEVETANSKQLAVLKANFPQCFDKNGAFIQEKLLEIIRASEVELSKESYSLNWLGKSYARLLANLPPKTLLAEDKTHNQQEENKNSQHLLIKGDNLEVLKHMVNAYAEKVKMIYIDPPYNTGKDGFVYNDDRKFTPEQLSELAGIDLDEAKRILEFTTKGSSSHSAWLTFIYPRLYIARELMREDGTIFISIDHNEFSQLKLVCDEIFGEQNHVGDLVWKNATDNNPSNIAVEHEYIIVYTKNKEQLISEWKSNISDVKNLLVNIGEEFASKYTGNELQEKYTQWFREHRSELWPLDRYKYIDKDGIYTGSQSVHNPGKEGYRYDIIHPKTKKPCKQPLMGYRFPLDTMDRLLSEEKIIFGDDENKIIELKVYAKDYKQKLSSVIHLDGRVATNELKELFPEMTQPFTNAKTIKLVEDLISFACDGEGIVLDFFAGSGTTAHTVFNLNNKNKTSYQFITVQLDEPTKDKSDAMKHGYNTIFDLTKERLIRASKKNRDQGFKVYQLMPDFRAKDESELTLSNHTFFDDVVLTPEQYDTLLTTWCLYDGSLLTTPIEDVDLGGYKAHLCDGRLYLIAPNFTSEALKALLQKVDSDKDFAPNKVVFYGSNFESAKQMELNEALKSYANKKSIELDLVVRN
T4 sequence 2: T3 sequence

[8] = biological target: T5, EcoP15I Res peptide 126-145 (spot B6) (UniProt Q5ZND2 126-145); assay: peptide array
T5 chain: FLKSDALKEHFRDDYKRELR

[9] = biological target: T6, EcoP15I Res strongest DNA-binding region (array peptides) (UniProt Q5ZND2 637-670); assay: peptide array
T6 chain: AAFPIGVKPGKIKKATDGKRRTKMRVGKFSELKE

[10] = biological target: T7, EcoP15I Res peptide 531-550 (spot F7) (UniProt Q5ZND2 531-550); assay: peptide array
T7 chain: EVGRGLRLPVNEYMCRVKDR

B1: EcoP15I MTase (Mod subunit, C-terminally His-tagged) (enzyme, UniProt P12364 1-644, looked up)
chain: T4 sequence 1
stoichiometry N [1]: 2

B2: EcoP15I Mod subunit (untagged, from pQEP15) (natural protein, UniProt P12364 1-644, looked up)
chain: T4 sequence 1
stoichiometry N [2]: 2 Mod:Res
Mod:Res ratio in SEC peak 1 [3]: ~1 Mod:Res
stoichiometry N [3]: 1.8 Mod:Res

B3: EcoP15I Mod subunit (earlier preparations from pACYC177, no affinity tag) (natural protein, UniProt P12364 1-644, looked up)
chain: T4 sequence 1
stoichiometry N [4]: 1.8 ± 0.15 Mod:Res

B4: SR60-1/SR60-1c, dsDNA one site (dsDNA)
DNA 1: GGTCGACGAACCGTAATCGTACCCAGCAGATATCGGTACCGTTCGGTAATATTCCGACGG
DNA 2: CCGTCGGAATATTACCGAACGGTACCGATATCTGCTGGGTACGATTACGGTTCGTCGACC
Kd [5]: 128 nM
Kd [6]: 16 nM
Kd [7]: 121 nM

B5: SR60-0/SR60-0c, dsDNA no site (dsDNA)
DNA 1: B4 DNA 1 with C24G, G26A, A28C
DNA 2: B4 DNA 2 with T33G, C35T, G37C
Kd [5]: 93 nM
Kd [6]: 37 nM
Kd [7]: 160 nM

B6: SR60-1, ssDNA (ssDNA)
DNA: B4 DNA 1
Kd [5]: 268 nM
Kd [6]: 267 nM
Kd [7]: 346 nM

B7: KW30-1/KW30-1c, specific dsDNA (dsDNA)
DNA 1: CGTAATCGTACCCAGCAGATATCGGTACCG
DNA 2: CGGTACCGATATCTGCTGGGTACGATTACG
binding result [8]: no binding
binding result [9]: binds
binding result [10]: no binding
